Measurements: patent US20170298146A1 (MODIQUEST B V, published 2017)
Non-standard residues stand in square brackets, D forms with d. No end group written: not given here. Cit = NC(=O)NCCC[C@H](N)C(=O)O

What was measured:
CFC-1 [1] = biological target: T1, CFC-1; assay: ELISA, 10 ug/well
T1 construct: Positive control for anti-citrulline reactivity; also called cfc1 XG
Protocol: (§1) CFC-1 and CFC-0 were coated at the same concentration and served as positive and negative controls, respectively, for specific anti-citrulline reactivity and as coating controls. Non-coated wells were used to test for aspecific binding of the antibodies. […] Detection of bound anti-citrulline antibodies was performed by incubating the wells with rabbit-anti-human-HRP (1:2000) for one hour at RT followed by incubation with TMB substrate. The resulting OD (y-axis) is a measure for antibody binding. H1=recombinant histone 1; H1/p2=huPAD2 recombinant histone 1; H1/p4=huPAD4 recombinant histone 1 and so forth (x-axis).

[2] = biological target: T2, huPAD4 deiminated human recombinant histone H2A (human); assay: ELISA, 10 ug/well
T2 construct: also called H2A/p4; huPAD4 deiminated histone 2A
Protocol: as §1

[3] = biological target: T3, huPAD4 deiminated human recombinant histone H3 (human); assay: ELISA, 10 ug/well
T3 construct: also called H3/p4
Protocol: as §1

[4] = biological target: T4, huPAD2 deiminated human recombinant histone H2A (human); assay: ELISA, 10 ug/well
T4 construct: also called H2A/p2
Protocol: as §1

[5] = biological target: T5, huPAD4 deiminated human recombinant histone H2B (human); assay: ELISA, 10 ug/well
T5 construct: also called H2B/p4
Protocol: as §1

[6] = biological target: T6, human recombinant histone H2A (human); assay: ELISA, 10 ug/well
T6 construct: Non-deiminated
Protocol: as §1

[7] = biological target: T7, huPAD2 deiminated human recombinant histone H3 (human); assay: ELISA, 10 ug/well
T7 construct: also called H3/p2
Protocol: as §1

[8] = biological target: T8, huPAD2 deiminated human recombinant histone H2B (human); assay: ELISA, 10 ug/well
T8 construct: also called H2B/p2
Protocol: as §1

[9] = biological target: T9, human recombinant histone H4 (human, UniProt P62805 2-103); assay: ELISA, 10 ug/well
Protocol: as §1

[10] = biological target: T10, human recombinant histone H2B (human); assay: ELISA, 10 ug/well
T10 construct: Non-deiminated
Protocol: as §1

[11] = biological target: T4, huPAD2 deiminated human recombinant …; assay: ELISA, 0.000128 ug/well
Protocol: as §1

[12] = biological target: T5, huPAD4 deiminated human recombinant …; assay: ELISA, 0.000128 ug/well
Protocol: as §1

[13] = biological target: T7, huPAD2 deiminated human recombinant …; assay: ELISA, 0.000128 ug/well
Protocol: as §1

[14] = biological target: T8, huPAD2 deiminated human recombinant …; assay: ELISA, 0.000128 ug/well
Protocol: as §1

[15] = biological target: T9, human recombinant histone H4; assay: ELISA, 0.000128 ug/well
Protocol: as §1

[16] = biological target: T10, human recombinant histone H2B; assay: ELISA, 0.000128 ug/well
Protocol: as §1

[17] = biological target: T11, Histone 2A citrulline-containing peptide 11 (human, also: biotin label); assay: peptide ELISA, 0.4 ug/well
T11 peptide: LQLAI[Cit]NDEELN
Protocol: as §1, with “Biotin and citrulline-containing peptides derived from histone 2A were immobilized on NEUTRAVIDIN®-coated 96-well ELISA plates (0.3 μg/well). CFC-1” for “CFC-1”, “controls respectively” for “controls, respectively,”, “binding.” for “binding. H1=recombinant histone 1; H1/p2=huPAD2 recombinant histone 1; H1/p4=huPAD4 recombinant histone 1 and so forth (x-axis).”
(§2) Ninety-six-well ELISA plates were coated with NEUTRAVIDIN® (0.1 μg/well) by overnight incubation at 4° C. Wells were washed five times with PBS-TWEEN®-20 (PBS-T) and blocked by a one-hour incubation with PBS-T+1% Bovine serum albumin (BSA) at room temperature (RT). After five more washes with PBS-T, wells were incubated for one hour at RT with histone-derived citrulline and biotin-containing peptides (0.3 μg/well). […] Wells were washed five times with PBS-T and incubated with rabbit-anti-human-HRP (1:2000) for one hour at RT followed by five washes with PBS-T and three wash steps with PBS. Wells were incubated for five minutes with TMB substrate before stopping the reaction with 2 M H₂SO₄. Optical density was measured by 450 nm and is a measure for the affinity of the antibodies used.

[18] = biological target: T12, Histone 2A citrulline-containing peptide 3 (human, also: biotin label); assay: peptide ELISA, 0.4 ug/well
T12 peptide: KSRSS[Cit]AGLQFP
Protocol: as §1, with “Biotin and citrulline-containing peptides derived from histone 2A were immobilized on NEUTRAVIDIN®-coated 96-well ELISA plates (0.3 μg/well). CFC-1” for “CFC-1”, “controls respectively” for “controls, respectively,”, “binding.” for “binding. H1=recombinant histone 1; H1/p2=huPAD2 recombinant histone 1; H1/p4=huPAD4 recombinant histone 1 and so forth (x-axis).”
as §2

[19] = biological target: T13, Histone 2A citrulline-containing peptide 4 (human, also: biotin label); assay: peptide ELISA, 0.4 ug/well
T13 peptide: QFPVG[Cit]VHRLLR
Protocol: as §1, with “Biotin and citrulline-containing peptides derived from histone 2A were immobilized on NEUTRAVIDIN®-coated 96-well ELISA plates (0.3 μg/well). CFC-1” for “CFC-1”, “controls respectively” for “controls, respectively,”, “binding.” for “binding. H1=recombinant histone 1; H1/p2=huPAD2 recombinant histone 1; H1/p4=huPAD4 recombinant histone 1 and so forth (x-axis).”
as §2

[20] = biological target: T14, Histone 2A citrulline-containing peptide 7 (human, also: biotin label); assay: peptide ELISA, 0.4 ug/well
T14 peptide: GNYSE[Cit]VGAGAP
Protocol: as §1, with “Biotin and citrulline-containing peptides derived from histone 2A were immobilized on NEUTRAVIDIN®-coated 96-well ELISA plates (0.3 μg/well). CFC-1” for “CFC-1”, “controls respectively” for “controls, respectively,”, “binding.” for “binding. H1=recombinant histone 1; H1/p2=huPAD2 recombinant histone 1; H1/p4=huPAD4 recombinant histone 1 and so forth (x-axis).”
as §2

[21] = biological target: T15, Histone 2A citrulline-containing peptide 12 (human, also: biotin label); assay: peptide ELISA, 0.4 ug/well
T15 peptide: NKLLG[Cit]VTIAQG
Protocol: as §1, with “Biotin and citrulline-containing peptides derived from histone 2A were immobilized on NEUTRAVIDIN®-coated 96-well ELISA plates (0.3 μg/well). CFC-1” for “CFC-1”, “controls respectively” for “controls, respectively,”, “binding.” for “binding. H1=recombinant histone 1; H1/p2=huPAD2 recombinant histone 1; H1/p4=huPAD4 recombinant histone 1 and so forth (x-axis).”
as §2

CFC-1 [22] = biological target: T1, CFC-1; assay: peptide ELISA, 0.4 ug/well
Protocol: as §1, with “Biotin and citrulline-containing peptides derived from histone 2A were immobilized on NEUTRAVIDIN®-coated 96-well ELISA plates (0.3 μg/well). CFC-1” for “CFC-1”, “controls respectively” for “controls, respectively,”, “binding.” for “binding. H1=recombinant histone 1; H1/p2=huPAD2 recombinant histone 1; H1/p4=huPAD4 recombinant histone 1 and so forth (x-axis).”
as §2

[23] = biological target: T16, Histone 2A citrulline-containing peptide 8 (human, also: biotin label); assay: peptide ELISA, 0.4 ug/well
T16 peptide: AGNAA[Cit]DNKKTR
Protocol: as §1, with “Biotin and citrulline-containing peptides derived from histone 2A were immobilized on NEUTRAVIDIN®-coated 96-well ELISA plates (0.3 μg/well). CFC-1” for “CFC-1”, “controls respectively” for “controls, respectively,”, “binding.” for “binding. H1=recombinant histone 1; H1/p2=huPAD2 recombinant histone 1; H1/p4=huPAD4 recombinant histone 1 and so forth (x-axis).”
as §2

[24] = biological target: T17, Histone 2A citrulline-containing peptide 1 (human, also: biotin label); assay: peptide ELISA, 0.4 ug/well
T17 construct: also called AAASGXGKQGGK
T17 peptide: AAASG[Cit]GKQGGK
Protocol: as §1, with “Biotin and citrulline-containing peptides derived from histone 2A were immobilized on NEUTRAVIDIN®-coated 96-well ELISA plates (0.3 μg/well). CFC-1” for “CFC-1”, “controls respectively” for “controls, respectively,”, “binding.” for “binding. H1=recombinant histone 1; H1/p2=huPAD2 recombinant histone 1; H1/p4=huPAD4 recombinant histone 1 and so forth (x-axis).”
as §2

[25] = biological target: T18, Histone 2A citrulline-containing peptide 10 (human, also: biotin label); assay: peptide ELISA, 0.4 ug/well
T18 peptide: TRIIP[Cit]HLQLAI
Protocol: as §1, with “Biotin and citrulline-containing peptides derived from histone 2A were immobilized on NEUTRAVIDIN®-coated 96-well ELISA plates (0.3 μg/well). CFC-1” for “CFC-1”, “controls respectively” for “controls, respectively,”, “binding.” for “binding. H1=recombinant histone 1; H1/p2=huPAD2 recombinant histone 1; H1/p4=huPAD4 recombinant histone 1 and so forth (x-axis).”
as §2

[26] = biological target: T19, Histone 2A citrulline-containing peptide 6 (human, also: biotin label); assay: peptide ELISA, 0.4 ug/well
T19 peptide: VHRLL[Cit]KGNYSE
Protocol: as §1, with “Biotin and citrulline-containing peptides derived from histone 2A were immobilized on NEUTRAVIDIN®-coated 96-well ELISA plates (0.3 μg/well). CFC-1” for “CFC-1”, “controls respectively” for “controls, respectively,”, “binding.” for “binding. H1=recombinant histone 1; H1/p2=huPAD2 recombinant histone 1; H1/p4=huPAD4 recombinant histone 1 and so forth (x-axis).”
as §2

[27] = biological target: T20, Histone 2A citrulline-containing peptide 5 (human, also: biotin label); assay: peptide ELISA, 0.4 ug/well
T20 peptide: VGRVH[Cit]LLRKGN
Protocol: as §1, with “Biotin and citrulline-containing peptides derived from histone 2A were immobilized on NEUTRAVIDIN®-coated 96-well ELISA plates (0.3 μg/well). CFC-1” for “CFC-1”, “controls respectively” for “controls, respectively,”, “binding.” for “binding. H1=recombinant histone 1; H1/p2=huPAD2 recombinant histone 1; H1/p4=huPAD4 recombinant histone 1 and so forth (x-axis).”
as §2

[28] = biological target: T21, Histone 2A citrulline-containing peptide 9 (human, also: biotin label); assay: peptide ELISA, 0.4 ug/well
T21 peptide: DNKKT[Cit]IIPRHL
Protocol: as §1, with “Biotin and citrulline-containing peptides derived from histone 2A were immobilized on NEUTRAVIDIN®-coated 96-well ELISA plates (0.3 μg/well). CFC-1” for “CFC-1”, “controls respectively” for “controls, respectively,”, “binding.” for “binding. H1=recombinant histone 1; H1/p2=huPAD2 recombinant histone 1; H1/p4=huPAD4 recombinant histone 1 and so forth (x-axis).”
as §2

[29] = biological target: T22, Histone 2A citrulline-containing peptide 2 (human, also: biotin label); assay: peptide ELISA, 0.4 ug/well
T22 peptide: AKAKS[Cit]SSRAGL
Protocol: as §1, with “Biotin and citrulline-containing peptides derived from histone 2A were immobilized on NEUTRAVIDIN®-coated 96-well ELISA plates (0.3 μg/well). CFC-1” for “CFC-1”, “controls respectively” for “controls, respectively,”, “binding.” for “binding. H1=recombinant histone 1; H1/p2=huPAD2 recombinant histone 1; H1/p4=huPAD4 recombinant histone 1 and so forth (x-axis).”
as §2

B1: RhmAb2.102 (antibody, human IgG1, lambda)
heavy: not shown
light: QSVLTQPPSMSAAPGQKVTISCSGSSSNIGNNYVSWYQQVPGTAPKLLIYDDNKRPSGIPGRFSGSKSATSATLGITGLQAGDEADYYCGSWDDNLSVVLFGGGTKLTVLGQPKAAPSVTLFPPSSEELQANKATLVCLISDFYPGAVTVAWKADSSPVKAGVETTTPSKQSNNKYAASSYLSLTPEQWKSHRSYSCQVTHEGSTVEKTVAPTECS
notes: Human IgG1 lambda; also called Rhm2.102
CFC-1 [1]
  OD: 3.48 OD
[2]
  OD: 3.42 OD
[3]
  OD: 1.31 OD
[4]
  OD: 3.41 OD
[5]
  OD: 0.229 OD
[6]
  OD: 0.428 OD
[7]
  OD: 2.44 OD
[8]
  OD: 0.31 OD
[9]
  OD: 0.825 OD
[10]
  OD: 0.247 OD
[11]
  OD: 0.063 OD
[12]
  OD: 0.053 OD
[13]
  OD: 0.066 OD
[14]
  OD: 0.051 OD
[15]
  OD: 0.06 OD
[16]
  OD: 0.052 OD
[17]
  OD: 0.064 OD
[18]
  OD: 0.154 OD
[19]
  OD: 0.564 OD
[20]
  OD: 0.064 OD
[21]
  OD: 0.061 OD
CFC-1 [22]
  OD: 3.06 OD
[23]
  OD: 0.061 OD
[24]
  OD: 2.8 OD
[25]
  OD: 0.051 OD
[26]
  OD: 0.333 OD
[27]
  OD: 0.082 OD
[28]
  OD: 0.057 OD
[29]
  OD: 0.136 OD
